Measurements as given in patent US20230242616A1 (LUDWIG MAXIMILIANS UNIVERSIT T M NCHEN, published 2023).
Where no end group is shown, it is not given here.

Assays:
[1] = target: T1, human macrophage migration-inhibitory factor (MIF) (human, UniProt P14174 2-115, limits assumed, Alexa-Fluor 488 or Monolith NT-647 (MST-Red) label where so named); assay: fluorescence spectroscopic binding assay
T1 construct: Biologically active recombinant MIF prepared as reported previously; also called Alexa-MIF; Alexa-488-MIF
T1 sequence (P14174 2-115 limits assumed): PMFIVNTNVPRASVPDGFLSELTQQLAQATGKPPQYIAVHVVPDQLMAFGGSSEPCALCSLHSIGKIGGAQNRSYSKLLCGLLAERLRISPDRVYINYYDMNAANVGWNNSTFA

[2] = target: T1, human macrophage migration-inhibitory …; assay: cell-based or functional assay
[3] = target: T1, human macrophage migration-inhibitory …; assay: fluorescence spectroscopic titration of Fluos-ngm-LD3 with increasing MIF [panel B]
Protocol: (§1) Fluorescence spectroscopy. Fluorescence spectroscopic titrations were performed as described^{28, 32}. Fluorescence spectra were recorded using a JASCO FP-6500 fluorescence spectrophotometer. […] Apparent KD values (app. KD) were calculated assuming a 1/1 binding model³².

[4] = target: T1, human macrophage migration-inhibitory …; assay: fluorescence spectroscopic titration, apparent Kd; Alexa-488-MIF titrated with ngm
Protocol: (§2) Peptides were dissolved and analyzed by MALDI-TOF-MS; ^{[a]}Peptides were synthesized with free amino-N-terminal and amidated C-terminal; ^{[b]}monoisotopic molar mass with an additional hydrogen [M + H]⁺; ^{[c]} App. Kds, are means (±SD) from three independent titration experiments which were performed in aqueous […], pH 7.4, containing 1% HFIP.
as §1

[5] = target: T1, human macrophage migration-inhibitory …; assay: fluorescence spectroscopic titration
[6] = target: T1, human macrophage migration-inhibitory …; assay: fluorescence spectroscopic titration, apparent Kd; Fluos-ngm titrated with MIF
Protocol: as §2, §1

[7] = target: T1, human macrophage migration-inhibitory …; assay: fluorescence spectroscopic titration; row labelled msR4M-L5 but with the K-K-K linker
Protocol: as §2, §1

Row | Binder | Kd [1] [nM] | inhibitory capacity in the Dil-LDL foam cell assay [2] | Kd [4] [nM] | Kd [6] [nM] | also measured
1 | DRFYPNDLW-NH2 [ECL2(187-195)] | 286 | ~80 % of full-length msR4M-L1 |  |  | 
2 | WYFGNFLCKDDDDRFYPNDLW-NH2 (designed binder, not fully specified; printed as WYFGNFLCK-DDD-DRFYPNDLW, also called ngm-LD3; msR4M-D3) [msR4M-LD3 ([ECL1(102-110)]-D-D-D-[ECL2(187-195)])] |  |  | 246 | 36 | EC50 (read off the curve) [3]: ~30 nM; Kd [5]: 33 nM; IC50 of inhibition of MIF-mediated monocyte migration (3D, single cell tracking) [2]: 18.4 nM; IC50 of inhibition of MIF-triggered Dil-oxLDL uptake (foam cell assay) [2]: 1.4 nM
3 | ICDRFYPNDLW-NH2 [ECL2 fragment 185-195] | 324 | ~80 % of full-length msR4M-L1 |  |  | 
4 | WYFGNFLCKRRRDRFYPNDLW-NH2 (designed binder, not fully specified; printed as WYFGNFLCK-RRR-DRFYPNDLW, also called ngm-LR3; msR4M-R3) [msR4M-LR3 ([ECL1(102-110)]-R-R-R-[ECL2(187-195)])] |  |  | 110 | 16.8 | Kd [5]: 22 nM
5 | NWYFGNFLCK-NH2 [ECL1 fragment 101-110] | 51 | ~80 % of full-length msR4M-L1 |  |  | 
6 | ANWYFGNFLCK-NH2 [ECL1 fragment 100-110] | 215 | ~80 % of full-length msR4M-L1 |  |  | 
7 | WYFGNFLCK-NH2 [ECL1(102-110)] | 80 | ~80 % of full-length msR4M-L1 |  |  | 
8 | WYFGNFLCKKKKDRFYPNDLW-NH2 (designed binder, not fully specified; printed as WYFGNFLCK-KKK-DRFYPNDLW, also called ngm-LK3; msR4M-K3) [msR4M-LK3 ([ECL1(102-110)]-K-K-K-[ECL2(187-195)])] |  |  | 44.8 | 36.4 | Kd [7]: 30 to 40 nM
